From US20220153832A1 (PIONYR IMMUNOTHERAPEUTICS, published 2022)

T1: recombinant cynomolgus MARCO protein (cynomolgus, UniProt A0A2K5X0Z2 65-519)
T1 construct: Construct not described; also called cyno MARCO; cynoMARCO
T1 sequence: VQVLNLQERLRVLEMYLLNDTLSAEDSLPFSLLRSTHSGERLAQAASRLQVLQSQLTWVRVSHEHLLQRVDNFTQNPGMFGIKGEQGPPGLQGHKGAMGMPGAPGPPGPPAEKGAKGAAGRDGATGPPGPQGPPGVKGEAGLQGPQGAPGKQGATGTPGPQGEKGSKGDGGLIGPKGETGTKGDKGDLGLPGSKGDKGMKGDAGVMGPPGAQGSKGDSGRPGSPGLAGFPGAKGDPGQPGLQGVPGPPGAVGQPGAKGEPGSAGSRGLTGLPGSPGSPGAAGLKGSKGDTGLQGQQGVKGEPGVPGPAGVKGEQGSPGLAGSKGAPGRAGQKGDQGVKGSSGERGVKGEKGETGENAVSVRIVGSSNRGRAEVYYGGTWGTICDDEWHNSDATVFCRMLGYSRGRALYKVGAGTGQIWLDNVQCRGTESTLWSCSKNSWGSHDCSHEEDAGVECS

T2: Cynomolgus MARCO, full length, on cells (cynomolgus, UniProt A0A2K5X0Z2 1-519)
T2 construct: whole, on cells; also called cyno MARCO; CyMARCO
T2 sequence: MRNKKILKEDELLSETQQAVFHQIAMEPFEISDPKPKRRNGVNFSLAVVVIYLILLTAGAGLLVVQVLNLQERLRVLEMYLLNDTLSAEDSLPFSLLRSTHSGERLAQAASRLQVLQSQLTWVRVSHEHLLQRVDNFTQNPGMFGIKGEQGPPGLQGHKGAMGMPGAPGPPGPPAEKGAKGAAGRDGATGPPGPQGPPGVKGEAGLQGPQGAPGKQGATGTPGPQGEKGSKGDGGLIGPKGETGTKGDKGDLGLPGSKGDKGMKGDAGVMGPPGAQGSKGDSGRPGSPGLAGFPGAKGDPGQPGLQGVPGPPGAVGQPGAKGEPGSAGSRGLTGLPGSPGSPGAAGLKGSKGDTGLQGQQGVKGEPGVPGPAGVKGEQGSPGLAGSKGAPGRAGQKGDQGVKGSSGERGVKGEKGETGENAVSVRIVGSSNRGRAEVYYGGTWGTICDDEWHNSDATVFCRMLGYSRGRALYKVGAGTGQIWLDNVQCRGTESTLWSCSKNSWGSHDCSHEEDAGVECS

T3: Human Macrophage Receptor with Collagenous Structure (MARCO), full length, on cells (human, UniProt Q9UEW3 1-520)
T3 construct: the cell type is named under assay; also called huMARCO; HuMARCO
T3 sequence: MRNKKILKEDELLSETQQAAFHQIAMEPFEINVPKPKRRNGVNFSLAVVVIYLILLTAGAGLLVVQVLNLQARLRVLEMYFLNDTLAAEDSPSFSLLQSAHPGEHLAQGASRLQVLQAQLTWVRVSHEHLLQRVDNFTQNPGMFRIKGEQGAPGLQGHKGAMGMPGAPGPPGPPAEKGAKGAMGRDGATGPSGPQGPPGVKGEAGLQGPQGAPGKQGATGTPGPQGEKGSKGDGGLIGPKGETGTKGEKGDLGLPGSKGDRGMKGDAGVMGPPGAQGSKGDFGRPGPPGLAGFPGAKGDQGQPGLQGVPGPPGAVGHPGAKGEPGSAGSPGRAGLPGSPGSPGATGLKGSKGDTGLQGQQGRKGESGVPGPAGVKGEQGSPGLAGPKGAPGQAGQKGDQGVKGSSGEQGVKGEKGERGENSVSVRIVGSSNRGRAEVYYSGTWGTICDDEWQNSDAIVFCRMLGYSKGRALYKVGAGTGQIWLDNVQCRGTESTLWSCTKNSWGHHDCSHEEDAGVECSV

T4: N-terminally polyhistidine tagged human MARCO ECD (147-520), recombinant (human, UniProt Q9UEW3 147-520)
T4 construct: also called PI-RG-3000; recombinant human MARCO; not shown: N-terminal polyhistidine tag
T4 sequence: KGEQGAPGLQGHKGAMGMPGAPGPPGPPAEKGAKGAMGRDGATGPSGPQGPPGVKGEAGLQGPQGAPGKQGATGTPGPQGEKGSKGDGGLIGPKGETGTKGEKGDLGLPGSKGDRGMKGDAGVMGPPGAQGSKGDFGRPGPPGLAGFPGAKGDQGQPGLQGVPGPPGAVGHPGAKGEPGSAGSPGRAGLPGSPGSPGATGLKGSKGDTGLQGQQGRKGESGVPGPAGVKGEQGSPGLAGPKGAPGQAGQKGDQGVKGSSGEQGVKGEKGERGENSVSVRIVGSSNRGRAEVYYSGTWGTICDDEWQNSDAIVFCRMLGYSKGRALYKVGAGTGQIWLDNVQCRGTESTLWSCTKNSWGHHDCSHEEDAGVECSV


Tests used:
[1] = target: T5, hVar3 (RG3036) (human, UniProt Q9UEW3 147-520); assay: ELISA on recombinant hVar3 protein, A450
T5 construct: Human MARCO His-CLD-SRCR with Q452D, Y472S and K473S (already in the entry); also called recombinant human SRCR MARCO hVar3 protein

[2] = target: T1, recombinant cynomolgus MARCO protein; assay: Biacore (SPR), recombinant cyno MARCO
[3] = target: T2, Cynomolgus MARCO, full length, on cells; assay: flow cytometry, cells overexpressing cyno MARCO; cyn (second of hu/cyn)
[4] = target: T3, Human Macrophage Receptor with …; assay: flow cytometry, cells overexpressing human MARCO; hu (first of hu/cyn)
[5] = target: T4, N-terminally polyhistidine tagged human …; assay: Biacore (SPR), binding affinity to human MARCO
Procedure, shortened: (§1)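 Binding kinetics and affinity of antibodies for the N-terminally His-tagged human MARCO extracellular domain (147-520) were determined by surface plasmon resonance with multi-cycle kinetics on a Biacore T200. The antibodies were captured on a CM4 chip carrying amine-coupled anti-mouse Fc mAb (4500 RU target), and the runs were done at 25° C in 10 mM HEPES pH 7.4, 150 mM NaCl, 3 mM EDTA, 0.05% surfactant P20. The analyte was injected at 0.625–10 nM with 90 s association and 600 s dissociation, and the constants were fitted in BIAevaluation 3.1.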

[6] = target: T4, N-terminally polyhistidine tagged human …; assay: Biacore (SPR), recombinant human MARCO
Procedure, shortened: as §1

[7] = target: T3, Human Macrophage Receptor with …; assay: flow cytometry, 293T HuMARCO cells
Procedure, shortened: (§2)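 Flow cytometry was used to assess antibody binding to HEK293T cells expressing human or cynomolgus MARCO. After Zombie NIR viability staining, 100,000 cells/well were incubated for 1 hr on ice with antibodies in an 8-point three-fold dilution starting at 100 nM in D-PBS/2% FBS/2 mM EDTA, then with APC goat anti-mouse IgG for 30 min on ice. Cells were acquired on an Attune NxT, and geometric mean fluorescence intensities were analysed in FlowJo and Prism.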

[8] = target: T2, Cynomolgus MARCO, full length, on cells; assay: flow cytometry, 293T CyMARCO cells
Procedure, shortened: as §2

[9] = target: T5, hVar3 (RG3036); assay: ELISA on hVar3

Row | Kd [2] | EC50 [3] | EC50 [4] | Kd [5] | Kd [6] | koff [6] | Binder | further results
1 | – | – | – | – | – | – | PI-3019-AB (antibody, mouse IgG2a, kappa) heavy: EVQLVESGGGLVQPGSSLKLSCVASKFTFSNYGMNWIRQAPKKGLEWIALIYYNSNNKYYADSVKGRFTISRDNSKNTLYLEMNSLRSEDTAMYYCAKSLTGGSDYFDSWGQGVMVTVSSAKTTAPSVYPLAPVCGDTTGSSVTLGCLVKGYFPEPVTLTWNSGSLSSGVHTFPAVLQSDLYTLSSSVTVTSSTWPSQSITCNVAHPASSTKVDKKIEPRGPTIKPCPPCKCPAPNLLGGPSVFIFPPKIKDVLMISLSPIVTCVVVDVSEDDPDVQISWFVNNVEVHTAQTQTHREDYNSTLRVVSALPIQHQDWMSGKEFKCKVNNKDLPAPIERTISKPKGSVRAPQVYVLPPPEEEMTKKQVTLTCMVTDFMPEDIYVEWTNNGKTELNYKNTEPVLDSDGSYFMYSKLRVEKKNWVERNSYSCSVVHEGLHNHHTTKSFSRTPGK light: DVQMTQSPSYLAASPGESVSISCKASKSIGTFLAWYQEKPEKTNKLLIYSGSTLQSGTPSRFSGSGSGTDFTLTIRNLEPEDFAVYYCQQHDEYPFTFGSGTKLEIKRADAAPTVSIFPPSSEQLTSGGASVVCFLNNFYPKDINVKWKIDGSERQNGVLNSWTDQDSKDSTYSMSSTLTLTKDEYERHNSYTCEATHKTSTSPIVKSFNRNEC | binding result [1]: binds
2 | 1.1 nM | 1.07 nM | 0.821 nM | 0.78 nM | 0.78 nM | 0.000371 s⁻¹ | PI-3046-AB (antibody, human IgG4 S228P, kappa) heavy: not shown light: DIQMTQSPSSLSASVGDRVTITCRASEGISNDLAWYQQKPGKAPKLLIYAASRLQSGVPSRFSGSGSGTDYTLTISSMQPEDFATYYCQQSYKYPLTFGQGTKLEIKRTVAAPSVFIFPPSDEQLKSGTASVVCLLNNFYPREAKVQWKVDNALQSGNSQESVTEQDSKDSTYSLSSTLTLSKADYEKHKVYACEVTHQGLSSPVTKSFNRGEC | –
3 | 0.79 nM | 1.39 nM | 0.796 nM | 0.72 nM | 0.72 nM | 0.000337 s⁻¹ | PI-3047-AB (antibody, human IgG4 S228P, kappa, Humanized PI-HX-3011, hIgG4) heavy: not shown light: DIQMTQSPSSLSASVGDRVTITCRASAGISNDLAWYQQKPGKAPKLLIYAASRLQDGVPSRFSGSGSGTDFTLTISSMQPEDFATYYCQQSYKYPWTFGQGTKLEIKRTVAAPSVFIFPPSDEQLKSGTASVVCLLNNFYPREAKVQWKVDNALQSGNSQESVTEQDSKDSTYSLSSTLTLSKADYEKHKVYACEVTHQGLSSPVTKSFNRGEC | –
4 | 1.81 nM | 2.39 nM | 0.721 nM | 1.05 nM | 1.05 nM | 0.000386 s⁻¹ | PI-3048-AB (antibody, human IgG4 S228P, kappa) heavy: not shown light: DIQMTQSPSSLSASVGDRVTITCRASEGISNDLAWYQQKPGKAPKLLIYAASRLQDGVPSRFSGSGSGTDYTLTISSLQPEDFATYYCQQSYKYPLTFGQGTKLEIKRTVAAPSVFIFPPSDEQLKSGTASVVCLLNNFYPREAKVQWKVDNALQSGNSQESVTEQDSKDSTYSLSSTLTLSKADYEKHKVYACEVTHQGLSSPVTKSFNRGEC | –
5 | – | – | – | – | – | – | PI-HX-3017 (antibody, rat IgG1, V domains shown, Rat IgG1 hybridoma antibody; also called PI-3009 (name of the recombinant form)) VH: EVQLVESGGGLVQPGRSLKFSCSASGFTFSAYSMAWVRQAPKTGLEWVATIIYDGSSTYYRDSVKGRFTISRDNAKNTLYLQMDSLRSEDTATYYCARLGYSGHYFDYWGQGVMVTVSS VL: DTVLTQSPALAVSLGQRVTISCQASESVSSSLHSYLHWYQQKPGQQPKLLIYRASNLESGVPARFSGSGSGTDFTLNIDPVEADDIATYFCQQSWNDPRTFGGGTKLELK | binding result [7]: no binding; binding result [8]: no binding
6 | – | – | – | – | – | – | PI-3020-AB (antibody, human IgG4, kappa) heavy: not shown light: DIQMTQSPASLSTSLGETVSIECLASEGISNDLAWYQQKSGKSPQLLIYAASRLQDGVPSRFSGSGSGTRYSLKISGMQPEDEADYFCQQSYKYPLTFGSGTKLEIKRTVAAPSVFIFPPSDEQLKSGTASVVCLLNNFYPREAKVQWKVDNALQSGNSQESVTEQDSKDSTYSLSSTLTLSKADYEKHKVYACEVTHQGLSSPVTKSFNRGEC | binding result [9]: no binding
7 | – | – | – | – | – | – | PI-HX-3001 (antibody, rat IgG2a, V domains shown, Rat IgG2a hybridoma antibody; also called PI-3006 (name of the recombinant form)) VH: EVQLVESGGGLVKPGASLKLSCVASGFTFSDYWMNWVRQTPGKTMEWIGDIKDDGSYTNYTPSLKNRFTISRDNAKSTLYLQMNNVRSEDTGTYYCTSGGVFDYWGQGVMVTVSS VL: EIVLTQSPTTMAASPGEMVTITCRASSSVNYMHWFQQKSGTSPKPWIYDTSKLASGVPDRFSGSGSGTSYSLTISSMEAEDAASYYCLQRSTFPPTFGAGTKLELK | binding result [7]: no binding; binding result [8]: no binding
